Experimental data as given in patent US20250387450A1.

Target: TRPV1 disordered region polypeptide (UniProt Q8NER1)
Assay: modified sandwich ELISA, fluorescence grade by the table's key

Binder | fluorescent signal (fluorescentsignal)
engineered scaffold protein S090 (designed binder) IKEEHSIRQNEMYLNPDQSGLFEFHLDGQPIFRVDMQKKRTKWQLEEFGRFASFEAQGALANIAVDKANLEIMTKRSNQSEAGSHSWQLIFVCEFHEGTESVRLSERCYYNQELSVSFNSDVGEYRAVTELGRPDAEYWNSQKDLLEQRRAAVDTYCRHNYGVGESFTVQRRGGSHHHHHHLE | 100000 to 250000
engineered scaffold protein S005 (designed binder) MIKEEHVIIQAEFYLNPDQSGEFMFDFDGDEIFHVDMAKKETVWRLEEFGRFASFEAQGALANIAVDKANLEIMTKRSNYTPMGDTRPRFLWQLKFECHFFNGTERVRLLERCIYNQEESVRFDSDVGEYRAVTELGRPDAEYWNSQKDLLEQRRAAVDTYCRHNYGVGESFTVQGGSHHHHHHLE | 100000 to 250000
engineered scaffold protein S068 (designed binder) GDTRPRFLWQLKFECHFFNGTERVRLLERCIYNQEESVRFDSDVGEYRAVTELGRPDAEYWNSQKDLLEQRRAAVDTYCRHNYGVGESFTVQRRVEPKVTVYPSKTQPLQHHNLLVCSVSGFYPGSIEVRWFRNGQEEKAGVVSTGLIQNGDWTFQTLVMLETVPRSGEVYTCQVEHPSVTSPLTVEWRASGGGGSGGGGSGGGGIKEEHVIIQAEFYLNPDQSGEFMFDFDGDEIFHVDMAKKETVWRLEEFGRFASFEAQGALANIAVDKANLEIMTKRSNYTPITNVPPEVTVLTNSPVELREPNVLICFIDKFTPPVVNVTWLRNGKPVTTGVSETVFLPREDHLFRKFHYLPFLPSTEDVYDCRVEHWGLDEPLLKHWEFDAPSGGSHHHHHHLE | 50000 to 100000
